# From article PMC11445749, “Structural bases for blockade and activation of BK channels by Ba^2+ ions” (Frontiers in Molecular Biosciences, 2024)
# B1: Aplysia californica Slo1 BK channel (natural protein)
# chain: not shown
# notes: Homotetramer in lipid nanodiscs (scaffold MSP1E3D1); also called Aplysia Slo1; Aplysia BK channel; not shown: GFP, C-terminal, cleaved; rho-1D4, C-terminal, cleaved
# Target: the molecule itself
# Test: cryo-EM structure; Slo1 tetramers in lipid nanodiscs (MSP1E3D1); two samples: Low-Barium (~1.4 mM Ba2+, PDB 7RK6) and High-Barium (10 mM Ba2+ throughout purification, PDB 7RJT); Titan Krios, K2 detector
protein,measurement,value
B1,stoichiometry N,4
